Drawing on publication PMC9967848, this text covers Kd for 4 substances.

What all share (settings): none (in vitro transcript); 20 mM Tris-HCl pH 8, 50 mM NaCl, 1 mM MgCl2; 5 nM tRNA, 30 min incubation; temperature not stated
Data set [1] concerns EPRS linker (whole linker) (human). Briefly: fluorescence quenching.
Another data set has as its system EPRS linker R2R3 (human). Briefly: fluorescence anisotropy. On the technique in general: Fluorescence polarisation rises when a labelled molecule tumbles more slowly, as on binding a larger partner.
For a further data set, the system named is EPRS linker R1R2 (human). Briefly: fluorescence anisotropy.
The subject of data set [2] is EPRS linker R1R2R3 (human). Briefly: fluorescence anisotropy.

Broadly, the Kd is the equilibrium constant for the complex coming apart. Low readings indicate tighter binding, high ones weaker binding.

bovine tRNATrp showed a Kd in data set [1] of 511 nM. This lies in the sub-micromolar range.

In data set [1], human tRNAGlu showed an equilibrium dissociation constant (Kd) of 886 nM.

As for human tRNALys3, the Kd was 589 nM in data set [1], greater than 10000 nM in the data set with EPRS linker R2R3 (human), 209 nM in the data set on EPRS linker R1R2 (human) and 43 nM in data set [2].

Take human tRNAPro: in data set [1], the Kd was 449 nM.
